Experimental data from patent publication US20210246210A1 (JIANGSU ALPHAMAB BIOPHARMACEUTICALS, published 2021).
Values belong to the binder of their own block, whether it stands above or below them.

Legend:
[1] = molecular target: human PD-L1 (WT) (human, UniProt Q9NZQ7 19-238, limits assumed); experiment: method not stated; PD-L1 ISVD-9 on human PD-L1 WT
[2] = molecular target: T1, CTLA4-muFc (human); experiment: ELISA, CTLA4-muFc coated, anti-human Fc-HRP detection (FIG. 2, Panel C)
T1 construct: also called soluble human CTLA4
Method: (§1) A 96-well plate was coated with CTLA4-muFc (human CTLA4 extracellular domain fused to the N-terminus of mouse Fc, its amino acid sequence is as set forth in SEQ ID NO: 52). Various concentrations of the samples as well as control molecules were added. HRP labeled goat anti-human Fc antibody was used for detection. After being developed with TMB, the plate was read at a wavelength of 450/650 nm in a microplate reader.

[3] = molecular target: T2, PD-L1-muFc (human); experiment: ELISA, PD-L1-muFc coated, anti-human Fc-HRP detection (FIG. 2, Panel B)
T2 construct: also called soluble human PD-L1
Method: as §1, with “PD-L1-muFc” for “CTLA4-muFc”, “PD-L1” for “CTLA4”, “to” for “to the”, “53).” for “52).”

human PD-L1 (WT), sequence (Q9NZQ7 19-238 limits assumed): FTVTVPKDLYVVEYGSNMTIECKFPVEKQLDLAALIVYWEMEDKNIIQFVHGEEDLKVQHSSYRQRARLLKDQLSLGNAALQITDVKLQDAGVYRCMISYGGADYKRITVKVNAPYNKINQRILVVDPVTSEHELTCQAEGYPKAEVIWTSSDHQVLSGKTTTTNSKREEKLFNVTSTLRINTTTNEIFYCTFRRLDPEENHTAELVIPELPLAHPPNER
T1 sequence (chain, as listed by the source limits assumed): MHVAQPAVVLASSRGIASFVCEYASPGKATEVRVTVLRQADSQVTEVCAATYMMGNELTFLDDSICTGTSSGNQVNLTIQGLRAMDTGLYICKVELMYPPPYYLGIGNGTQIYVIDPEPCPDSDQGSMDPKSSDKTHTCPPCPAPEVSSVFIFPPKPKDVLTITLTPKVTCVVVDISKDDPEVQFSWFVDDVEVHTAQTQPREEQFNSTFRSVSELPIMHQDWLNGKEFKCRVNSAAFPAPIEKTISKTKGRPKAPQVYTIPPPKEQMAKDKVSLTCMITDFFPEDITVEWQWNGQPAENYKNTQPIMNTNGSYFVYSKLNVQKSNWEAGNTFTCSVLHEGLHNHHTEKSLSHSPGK
T2 sequence (chain, as listed by the source limits assumed): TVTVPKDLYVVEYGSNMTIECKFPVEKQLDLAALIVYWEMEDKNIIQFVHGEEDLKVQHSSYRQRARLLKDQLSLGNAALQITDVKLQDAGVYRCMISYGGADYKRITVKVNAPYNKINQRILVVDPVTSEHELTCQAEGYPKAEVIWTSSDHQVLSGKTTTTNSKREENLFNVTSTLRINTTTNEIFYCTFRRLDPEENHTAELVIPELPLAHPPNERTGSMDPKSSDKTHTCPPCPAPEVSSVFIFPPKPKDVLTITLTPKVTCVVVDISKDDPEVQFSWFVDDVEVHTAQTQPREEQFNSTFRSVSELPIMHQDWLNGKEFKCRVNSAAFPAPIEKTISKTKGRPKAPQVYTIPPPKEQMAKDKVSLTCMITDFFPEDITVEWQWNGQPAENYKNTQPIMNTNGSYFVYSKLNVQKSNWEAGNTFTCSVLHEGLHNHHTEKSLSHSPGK

Kd [1]: 5.92 nM
B1: PD-L1 ISVD-9 (VHH)
VHH: QVQLVESGGGLVQPGGSLRLSCAASGKMSSRRCMAWFRQAPGKERERVAKLLTTSGSTYLADSVKGRFTISRDNSKNTVYLQMNSLRAEDTAVYYCAADSFEDPTCTLVTSSGAFQYWGQGTLVTVSS
notes: also called aPDL1.9; humanized variant of PD-L1 ISVD-4

EC50 [2]: ~0.5 nM
B2: ipilimumab (antibody, V domains shown)
VH: QVQLVESGGGVVQPGRSLRLSCAASGFTFSSYTMHWVRQAPGKGLEWVTFISYDGNNKYYADSVKGRFTISRDNSKNTLYLQMNSLRAEDTAIYYCARTGWLGPFDYWGQGTLVTVSS
VL: not shown

EC50 [3]: ~0.6 nM
B3: durvalumab (antibody, V domains shown)
VH: EVQLVESGGGLVQPGGSLRLSCAASGFTFSRYWMSWVRQAPGKGLEWVANIKQDGSEKYYVDSVKGRFTISRDNAKNSLYLQMNSLRAEDTAVYYCAREGGWFGELAFDYWGQGTLVTVSS
VL: EIVLTQSPGTLSLSPGERATLSCRASQRVSSSYLAWYQQKPGQAPRLLIYDASSRATGIPDRFSGSGSGTDFTLTISRLEPEDFAVYYCQQYGSLPWTFGQGTKVEIK
